The text below walks through data of the RNAGym collection of RNA variant scans (doi:10.1073/pnas.2313332121).

To fix the notation:
B1: TPR 5TU (parent)
chain: GGAUCUUCUCGAUCUAACAAAAAAGACAAAUCUGCCACAAAGCUUGAGAGCAUCUUCGGAUGCAGAGGCGGCAGCCUUCGGUGGCGCGAUAGCGCCAACGUUCUCAACUAUGACACGCAAAACGCGUGCUCCGUUGAAUGGAGUUUAUCAUG

This sample holds only a part of the variants without activity.

Variants of B1 are the subject of the data set. The data set is described as follows: polymerase ribozyme fitness, log enrichment relative to wild type (log ratio); higher = more active; in vitro selection for triplet polymerase activity. An outline of the steps: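 One round of in vitro selection, in triplicate, was applied to PCR-built, transcribed mutant libraries of each subunit of a heterodimeric triplet polymerase ribozyme. The steps were annealing with a biotinylated primer, partner subunit and triplets, incubation frozen at −7 °C, gel excision of extended constructs, streptavidin-bead capture and RT-PCR. Fitness is the logarithm, base 2, of genotype enrichment over wild-type enrichment from inverse-variance-weighted replicate averages of Illumina-sequenced inputs and outputs, keeping genotypes with ≥10 input reads and ≥1 read per output.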
GGAUCUUCUCGAUCUAACAAAAAAGACAAAUCUGCCACAAAGCUUAAGAGCAUCUUCGGAUGCAGAGGCGGCAGCCUUCGGUGGCGUGCUAGCACCAACGUUCUCAACUAUGCCACGCAAAACGCGUGCUCCGUUGAAUGGAGUUUAUCAUG: the “polymerase ribozyme fitness (log ratio)” value is not above -4.2.
Next, GGAUCUUCUCGAUCUAACAAAAAAGACAAAUCUGCCACAAAGCUGGAGAGCAUCUACGGAUGCAGAGGCGGCAGCCUUCGGUGGCGCGAUAGCGCCAACGUUCUCAACUAUGACACGCAAAACGCGUGCUCCGUUGAAUGGAGUUUAUCAUG: 0.0147.
Next, GGAUCUUCUCGAUCUAACAAAAAAGACAAAUCUGCCACAAAGCUGGAGAGCAUCUUCGGAGGCAGAGGCGGCAGCCUUCGGUGGCGGCAUAGCGCCAACGUUCUCAACUAUGACACGGAAAACGCGUGGUCCGUUGAAUGAAGUUUAUCAUG: not above -4.2; GGAUCUUCUCGAUCUAACAAAAAAGACAAAUCUGCCACAAAGCUUAAGAGCAUCUUCGGAUGCAGAGGCGGCAGCCUUCGGUGACGCGAUAGCGCCAACGUUCUCAACUAUGACACGCAAAACGCGUGCUCCGUUGAAUGGAGUUUAUCAUG: -2.74; GGAUCUUCUCGAUCUAACAAAAAAGACAAAUCUGCCACAAAGCUUAAGAGCAUCUUCGGAUGCAGAGGCGGCAGCCUUCGGUGGCGCGAUAGCGCUAACGAUCUCAACUAUGACACGCAAAACGCGUGCUCCGUUGAAUGGAGUUUAUCAUG: -2.59.
With GGAUCUUCUCGAUCUAACAAAAAAGACAAAUCUGCCACAAAGCUUAAGAGCAUCUUCGGAUGCAGAGGCGGCAGCCUUCGGUGGCGCGAUAGCGCCAAAGUUCUCAACUAUGAAACGCAAAACGCGUGAUCCGUUGAAUGAAGUUUAUCAUG, the “polymerase ribozyme fitness (log ratio)” value is not above -4.2.
Next, GGAUCUUCUCGAUCUAACAAAAAAGACAAAUCUGCCACAAAGCUUAAGAGGAUCUACGGAUGCAGAGGCGGCAGCCUUCGGUGGCGCUAUAGCGCCAACGUUCUCAACUAUGACACGCAAAACGCGUGCUCCGUUGAAUGAAGUUUAUCAUG: not above -4.2; GGAUCUUCUCGAUCUAACAAAAAAGACAAAUCUGCCACAAAGCUUAAGAGCAUCUUCGGAUGCAGAGGCGGCAGCCUUCGGUGGCGCGAUAGCGCCAAUGUUCUCAACUAUGACACGCAAAACGCGUGCUCCGUUGAAUGAAGUUUAUCAUG: not above -4.2; GGAUCUUCUCGAUCUAACAAAAAAGACAAAUCUGCCACAAAGCUUAAGAGCAUCUUCGGAUGCAGAAGCGGCAGCCUUCGGUGUCGCGAUAGCGCCGAUGUUCUCAACUAUGACAUGCAAAACGCGUGCUCCGUUGAAUGGAGUUUAUCAUG: not above -4.2.
As to GGAUCUUCUCGAUCUAACAAAAAAGACAAAUCUGCCACAAAGCUGGAGAGCAACUCCGGAUGCAGAGGCGGCAGCCUUCGGUGACGCGAUAGCGCCAACGUUCUCAACUAUGACACGCAAAACGUGUGCUCCGUUGGAUUGAGUUUAUAAUG, the “polymerase ribozyme fitness (log ratio)” value was not above -4.2.
As to GGAUCUUCUCGAUCUAACAAAAAAGACAAAUCUGCCACAAAGCUUAAGAGCAUCUUCGGAUGCAGAGGAGGCAGCCUUCGGUGGCGCGAUAGCGCCAACGUUCUCAACUAUGACACGCAAAACGCGUGCUCCGUUGAAUGGAGUUUAUCAUG, the “polymerase ribozyme fitness (log ratio)” value is -3.61.
To GGAUCUUCUCGAUCUAACAAAAAAGACAAAUCUGCCACAAAGCUUAAGAGCAUCUUCGGAUGCAGAGCCGGCAGCCUUCGGUGGCGCGCUAGCGCCAACGUUCUCAACUAUGACACGCAAAACACGUGCUCCGUUGAAUGGAGUUUAUCAUG belongs not above -4.2; to GGAUCUUCUCGAUCUAACAAAAAAGACAAAUCUGCCACAAAGCUUAGAACCAUCUUCGGAUGCAGAGGCGGCAGCCUUCGGUGGCGCGAUAGCGCCAACGUUCUCAACUAUGACACGCAAAACGCGUGCUCCGUUAAAUGGAGUUUAUCAUG, not above -4.2; to GGAUCUUCUCGAUCUAACAAAAAAGACAAAUCUGCCACAAAGCUUAAGAGCAUCUUCGCAUGCAGAGGCGGCAGCUUUCGGUGGCGCGAUAGCGCUAACGUUCUCAACUAUGACAUGCAAAACGCGUGCUCCGUUGAAUGGAGUUUAUCAUG, not above -4.2.
Next, GGAUCUUCUCGAUCUAACAAAAAAGACAAAUCUGCCACAAAGCUUAAGAGCAUCUUCGGAUGCAGAGGCGGCAGCCUUCGGUGGCGCGAUAGCGCCAACGUUCUCAACUAUGACACGCAAAACGCGUGUUCCGUUGAAUGGAGUUUAUCAUG: -3.61; GGAUCUUCUCGAUCUAACAAAAAAGACAAAUCUGCCACAAAGCUUAAGAACAUCUUUGGGUGCAGAGACGGCAGCCUUCGGUAGCGCGAUAGCUCCAACGUUCUCAACUAUGACACGCAAAACGCGUGCUCCGUUGAAUGCAGUUUAUCAUG: not above -4.2; GGAUCUUCUCGAUCUAACAAAAAAGACAAAUCUGCCACAAAGCUGGAGAGCAUCGUCGGAUGCAGAGGCGGCAGCCUUCGGUGGCGCGAUCGCGCCAACGAUCUCAGCUAUGACACGCAAAACGCGUGCUCCGUUGAAUGGAGUUUAUCAUG: not above -4.2.
As to GGAUCUUCUCGAUCUAACAAAAAAGACAAAUCUGCCACAAAGCUUAAGAGCAUCUUCGGAUGCAGAGGCGGCAGCCUUCGGUGGGGCGAUAGCGCCAACGUUCUCCACUAUGACACGCAAAACGAGUGCUCCGUUGAAUGGAGUUUAUCAUG, the “polymerase ribozyme fitness (log ratio)” value is not above -4.2.
Next, GGAUCUUCUCGAUCUAACAAAAAAGACAAAUCUGCCACAAAGCUUAAGAGCAUCUUCGGAUGGAGACGCGGCAGCCUUCGGUGGUGCGAUAGCGCCAACGUUCUCAACUAUGACACGCAAAACGCGUGCUCCGUUGAAUGGAGUUUAUCAUG: not above -4.2.
